Measured values taken from IntAct's records for PubMed 25678664.

B1: Claudin-19 (Mus musculus), Q9ET38 (parent)
chain: MANSGLQLLGYFLALGGWVGIIASTALPQWKQSSYAGDAIITAVGLYEGLWMSCASQSTGQVQCKLYDSLLALDGHIQSARALMVVAVLLGFVAMVLSVVGMKCTRVGDSNPTAKSRVAISGGALFLLAGLCTLTAVSWYATLVTQEFFNPSTPVNARYEFGPALFVGWASAGLAMLGGSFLCCTCPEPERANSIPQPYRSGPSTAAREPVVKLPASVKGPLGV

Variants of: B1
Conditions: with eltb_clopf cpe

Row | Variant | effect of a mutation on the interaction
1 | T153Y | decreasing interaction strength
2 | Y35S | decreasing interaction strength
3 | A39S | decreasing interaction strength
4 | A39R | decreasing interaction strength
5 | P151A | decreasing interaction strength
6 | P151G | decreasing interaction strength
7 | I40A | decreasing interaction strength
8 | I40L | decreasing interaction strength
9 | I40S | decreasing interaction strength
10 | I40V | decreasing interaction strength
11 | N150L | decreasing interaction strength
12 | N150K | decreasing interaction strength
13 | N150Q | decreasing interaction strength
14 | N150A | decreasing interaction strength
15 | N150D | decreasing interaction strength
16 | N150S | decreasing interaction strength
17 | I41S | decreasing interaction strength
18 | I41V | decreasing interaction strength
19 | I41A | decreasing interaction strength
20 | S152D | decreasing interaction strength
21 | Y159S | decreasing interaction strength
22 | Y159F | decreasing interaction strength
23 | P154D | decreasing interaction strength
24 | P154A | decreasing interaction strength
25 | N156G | decreasing interaction strength
